Data on 2 molecules can be found in patent US20190169308A1 (ALLIGATOR BIOSCIENCE, published 2019).

Assay [1] deals with T1, 5T4 (SPR antigen) (UniProt Q13641 32-355, limits assumed, biotinylated on the MASS-1 platform).
T1 construct: also called biotinylated 5T4
T1 sequence (looked up): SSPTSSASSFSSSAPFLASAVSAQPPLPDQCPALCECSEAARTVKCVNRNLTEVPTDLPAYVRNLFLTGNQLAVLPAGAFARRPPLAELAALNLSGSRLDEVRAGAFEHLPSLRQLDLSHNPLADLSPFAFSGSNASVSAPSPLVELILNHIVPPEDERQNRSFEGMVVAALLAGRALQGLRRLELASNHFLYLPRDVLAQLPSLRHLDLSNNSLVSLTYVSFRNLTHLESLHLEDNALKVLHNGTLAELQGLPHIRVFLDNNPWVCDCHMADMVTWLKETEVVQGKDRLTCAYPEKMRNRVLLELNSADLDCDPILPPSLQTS
The experiment in a line: SPR MASS-1, biotinylated 5T4 on streptavidin chip, mAb injected (bivalent). As for the experimental part:
Binding kinetics of the 5T4-specific mAbs have been studied using two different SPR-based platforms, the Biacore 3000 (GE Healthcare) and the MASS-1 platform (Sierra Sensors). Briefly, 5T4 was captured at the sensor chip surface either via direct amine coupling (Biacore platform) or using a streptavidin coated chip and biotinylated 5T4 (MASS-1 platform). The different 5T4-specific mAbs were then injected over the chip in increasing concentrations and the association and dissociation rates studied in real time. A 1:1 Langmuir model was used for curve fitting.

Assay [2] deals with T2, human 5T4 on transfected cells (human, UniProt Q13641 32-420).
T2 construct: whole, on cells; also called B16-5T4; CHOh5T4
T2 sequence (looked up): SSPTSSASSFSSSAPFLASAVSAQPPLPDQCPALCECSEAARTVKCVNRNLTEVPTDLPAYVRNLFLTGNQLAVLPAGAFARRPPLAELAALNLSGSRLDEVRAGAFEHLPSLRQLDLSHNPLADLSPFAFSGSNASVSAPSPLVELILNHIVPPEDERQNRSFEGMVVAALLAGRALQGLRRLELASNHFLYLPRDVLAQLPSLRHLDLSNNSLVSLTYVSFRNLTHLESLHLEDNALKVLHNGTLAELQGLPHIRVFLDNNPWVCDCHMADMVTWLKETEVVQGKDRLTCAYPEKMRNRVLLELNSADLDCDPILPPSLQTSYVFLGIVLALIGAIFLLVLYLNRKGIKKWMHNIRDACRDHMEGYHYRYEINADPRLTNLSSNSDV
The experiment in a line: flow cytometry, 5T4-transfected B16 cells. (In general: Flow cytometry measures light scatter and fluorescence of single cells or particles in a stream.)

Assay [3] has as its target T3, cynomolgus 5T4 on transfected CHO cells (Macaca mulatta (cynomolgus), UniProt F7CT46 35-420).
T3 construct: also called cyno5T4; cy5T4
T3 sequence: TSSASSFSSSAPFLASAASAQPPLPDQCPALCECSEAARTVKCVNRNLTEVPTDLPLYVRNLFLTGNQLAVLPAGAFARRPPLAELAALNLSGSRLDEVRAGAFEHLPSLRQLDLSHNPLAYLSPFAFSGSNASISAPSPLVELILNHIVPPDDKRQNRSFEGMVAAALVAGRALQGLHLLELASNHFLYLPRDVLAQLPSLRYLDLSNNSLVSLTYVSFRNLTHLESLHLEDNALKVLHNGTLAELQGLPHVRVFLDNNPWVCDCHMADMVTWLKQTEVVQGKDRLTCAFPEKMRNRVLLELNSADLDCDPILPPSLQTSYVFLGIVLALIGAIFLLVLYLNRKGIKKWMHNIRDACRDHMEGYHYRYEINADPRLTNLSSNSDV
The assay is described as follows: flow cytometry, cynomolgus 5T4-transfected CHO cells. The method, then: The potency of 5T4 antibodies in binding to cynomolgus 5T4 was determined by flow cytometry. CHO cells were stably transfected with […] (cynomolgus) 5T4. […] Samples were analysed either on a FACSCalibur or a FACSverse (BD Biosciences, Heidelberg, Germany) and mean fluorescence intensity (MFI) determined. […] To compare the EC50 values between human and cynomolgus 5T4, the cy5T4/hu5T4 ratio was calculated from the experiment with the full dose-response.

Assay [4] concerns the target T1, 5T4 (SPR antigen). The assay is described as follows: SPR MASS-1, biotinylated antigen on streptavidin chip, parental mAb.
In assay [5] the target is T4, 5T4-Fc (human, UniProt Q13641 32-355, limits assumed).
T4 construct: obtained from Peter L. Stern, University of Manchester; also called h5T4-Fc; recombinant 5T4
T4 sequence (looked up): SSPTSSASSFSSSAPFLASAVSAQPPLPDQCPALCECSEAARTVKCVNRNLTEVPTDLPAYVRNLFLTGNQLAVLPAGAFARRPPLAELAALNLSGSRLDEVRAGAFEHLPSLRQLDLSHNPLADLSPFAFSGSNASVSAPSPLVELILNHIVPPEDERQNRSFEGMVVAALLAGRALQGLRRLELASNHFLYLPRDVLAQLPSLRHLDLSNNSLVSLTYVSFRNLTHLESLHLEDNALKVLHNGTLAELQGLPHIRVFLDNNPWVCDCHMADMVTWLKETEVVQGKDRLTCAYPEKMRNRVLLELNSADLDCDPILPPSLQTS
The experiment in a line: ELISA, coated 5T4-Fc. The method, then:
ELISA was performed using a standard protocol. Plates (#655074, Greiner Bio-One GmbH, Germany) were pre-coated with 0.5 μg/ml 5T4-Fc (obtained from Peter L. Stern, University of Manchester) overnight. 5T4 antibodies were diluted from 6 to 1.5×10⁻³ μg/ml in 1:4 dilutions and added in duplicates of 50 μl to each well. Binding was detected with rabbit anti-h kappa L-chain-HRP (P0129, Dako Denmark) and the ELISA was developed with SuperSignal ELISA PICO Chemiluminescent substrate (Thermo Scientific Pierce, Rockford, Ill. USA) for 2-10 minutes and read in an automated microplate based multi-detection reader (FLUOstar OPTIMA, Netherlands).

In assay [6] the target is T5, mouse 5T4 on transfected cells (mouse, UniProt Q9Z0L0 32-426).
T5 construct: whole, on cells; also called murine 5T4
T5 sequence (looked up): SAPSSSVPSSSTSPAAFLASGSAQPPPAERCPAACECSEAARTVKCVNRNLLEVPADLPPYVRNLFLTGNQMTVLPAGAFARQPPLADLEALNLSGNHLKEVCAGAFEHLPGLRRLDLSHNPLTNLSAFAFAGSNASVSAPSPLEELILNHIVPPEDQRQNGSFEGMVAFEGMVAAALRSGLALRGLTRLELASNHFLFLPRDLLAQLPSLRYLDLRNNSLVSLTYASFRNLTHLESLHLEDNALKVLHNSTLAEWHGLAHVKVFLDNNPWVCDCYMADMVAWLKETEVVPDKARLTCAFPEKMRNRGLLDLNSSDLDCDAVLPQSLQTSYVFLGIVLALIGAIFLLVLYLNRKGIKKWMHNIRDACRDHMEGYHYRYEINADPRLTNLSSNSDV
The experiment in a line: flow cytometry, mouse 5T4-transfected cells.

B1: 1210/1211 (antibody, V domains shown)
VH: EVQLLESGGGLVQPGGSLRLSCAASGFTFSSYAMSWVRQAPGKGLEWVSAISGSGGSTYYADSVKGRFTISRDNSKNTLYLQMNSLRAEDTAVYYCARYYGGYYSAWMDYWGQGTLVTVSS
VL: DIQMTQSPSSLSASVGDRVTITCRASQSISSYLNWYQQKPGKAPKLLIYAASSLQSGVPSRFSGSGSGTDFTLTISSLQPEDFATYYCQQTYGYLHTFGQGTKLEIK
As to B1, the koff (in general, a measure of how fast the partners let go of each other) in assay [1] came out at 0.00019 s⁻¹. Besides, the kon (usually the second-order rate constant of association) in assay [1] was determined as 510000 M⁻¹ s⁻¹. For the same molecule, the figures for the EC50 in assay [2], in assay [3] and in assay [5] were 0.8 nM, 0.7 nM and 0.48 nM, respectively. The dissociation constant Kd (in general, the free concentration of one partner at which half of the binding sites on the other are occupied at equilibrium, for simple one-to-one binding) in assay [4] came to 0.437 nM. In assay [6], the binding result is reported as “no binding”.

B2: 1206/1207 (antibody, V domains shown)
VH: EVQLLESGGGLVQPGGSLRLSCAASGFTFSGSSMSWVRQAPGKGLEWVSSIYYSGSGTYYADSVKGRFTISRDNSKNTLYLQMNSLRAEDTAVYYCARYGRNVHPYNLDYWGQGTLVTVSS
VL: DIQMTQSPSSLSASVGDRVTITCRASQSISSYLNWYQQKPGKAPKLLIYAASSLQSGVPSRFSGSGSGTDFTLTISSLQPEDFATYYCQQGYYYLPTFGQGTKLEIK
As to B2, the koff in assay [1] was 0.00013 s⁻¹. This molecule also had a kon in assay [1] of 1.4e+06 M⁻¹ s⁻¹. Moreover, the figures for the EC50 in assay [2], in assay [3] and in assay [5] were 1.8 nM, 1.53 nM and 0.64 nM, respectively. In addition, the binding result in assay [6] is “no binding”.
